The values that follow come from PMC6297349, “The ASCIZ-DYNLL1 axis promotes 53BP1-dependent non-homologous end joining and PARP inhibitor sensitivity” (Nature Communications, 2018).

This data set concerns the molecule itself. The experiment in a line: SEC; equal concentrations of TALON IMAC eluate fractionated over a Superdex S200 column (Supplementary Fig. 2a). Background: Size exclusion chromatography separates by hydrodynamic size, large species first.

B1: Smt3-His6-tagged wild type 53BP1 fragment (amino acids 1131–1292) (domain or fragment, UniProt Q12888 1131-1292, looked up)
chain: GRSTNKENPSKALIERPSQNNIGIQTMECSLRVPETVSAATQTIKNVCEQGTSTVDQNFGKQDATVQTERGSGEKPVSAPGDDTESLHSQGEEEFDMPQPPHGHVLHRHMRTIREVRTLVTRVITDVYYVDGTEVERKVTEETEEPIVECQECETEVSPSQT
notes: No cleavage of the tags is described; the IMAC eluate went onto the Superdex S200 column; also called LC8-OD; source: E. coli BL21(DE3), pET-17b, purified (TALON IMAC column)
Regarding B1, the binding result was “binds”.
